Data: the DeepSol protein solubility set

Assay: soluble on expression in E. coli; label from the status in PepcDB or PDB records

| Sequence | soluble on expression in E. coli |
| --- | --- |
| MSLSSVRDKYNFNSEWLLYVGDTPEAKEVRFQDTDWKKVTLPRPFNEDEAFRLSIEQLTDTVMWYRKHFRLPADSKNKKVFVEFEGVRQGADFYINGEYIGLHENGAMAVGFDLTPYIKYGQENVMAVRIDNNWNYKERATGTKYQWSDRNFNANYGGIPKNVWLHVTDKLYQTLPLYSNLKTTGVYIYAEDIRVKSRKAVVHAESEIKNEYNRDKKVAYKVEVFDRDGKSIKSFEGTQTVVKPGETATLEASAEIDGLHFWSWGYGYLYTVKTSLWVDGRKVDEVATRTGFRKTRFGKGMIWLNDRVIQMKGFAQRTSNEWPGVGMSVPAWLSDYSNGLMVEDNANLVRWMHITPWKQDIESCDRVGLIQAMQAGDAEKDREGRQWEQRTELMRDAIIYNRNNPSILFYECGNESISREHMIEMKAIRDKYDPHGGRAIGSREMLDIREAEYGGEMLYINKSKHHPMWAMEYCRDEGLRKYWDEYSYPYHKNGEGNNSFRSAMTNKVQKKVDARAYNHNQDSFTIENVIRWFDYWRERPGTGDRVSSGGVKIIFSDTNTHYRGVENYRRSGVTDAMRIPKDPFYAHQVMWDGWVDIENPRIHIVGHWNYKEDVVKPVYVVSSAEKVELFLNGKSLGNGQRDYHFLYTFKDVAFVPGKLEAVGYDKNGKECCRAELQTAGKPEQIKLSVIQSPKGWKADGADMVLLQVEVMDKDGRRCPLANDLIHFDVEGPAEWRGGIAQGKDNYILSKDLPVECGINRALIRSLTTPGAVRITAKADGLQSAEISLSSAPVEVKNGLSNYIPGDELEGRLTRGETPLTPSYKDTKVDVNILSAVAGANQDETIKSFDDNELSEWKNDGRLNSAWITYSLERAARVDEICMKLTGWRLRSYPLEIYAGDELIWSGETEKSLGYIHLNVKPVLTNEITIRLKGASKEGDGFGQIVEVAAPAAGELDLFKAKNGDKTNHELRIVEIEFKENLWQEGHHHHHH | soluble |
| MALARANSPQEALLWALNDLEENSFKTLKFHLRDVTQFHLARGELESLSQVDLASKLISMYGAQEAVRVVSRSLLAMNLMELVDYLNQVCLNDYREIYREHV | soluble |
| MRFLFSLIGLVYSSLIKLAVPFNPKARMMVRGRWKVWRQLREGIVPGGRYIWFHAASLGEFEQGRPMIERIRSEYPDYRIVLTFFSPSGYEVRKNYEGADVIVYLPADRLPRVRKFLDLVKPEMAIFIKYDFWPCFLTELERRQIPTYLVSSIFRPSQLFFRWYGGAYKRLLHCFTHIFVQDKASRLLLEKHGIDHVSVAGDTRFDRVISVYEARKSLPLIERFAASVPEDGLVIVGGSSWPPDEEILVRYFNRNPKIKLILAPHEIDKEHLLQIISHIRRPFIRLSEATESDIARQDCLIVDSFGLLSSIYRYGQVAFIGGGFGKGIHNTPEAAVYGIPVIFGPRYEKFKEARELIDVGGGFSVSSAEEFGNLIKRIQTDKAYRDAASRAAADYIRSNAGATGYIVHRIMKLEHHHHHH | soluble |
| MVRKMNKLAKRLASTSKSRQPEPESDSDGSEFDFDNAIEEKPMEAMDIEEVESDGDDDERELQAAFAAGLLKDGLNIQVAKKRPIINKSAEMKEKLAEITKDLPWVETLEVVTPHSEMDKKVENDDFQRELNFYKQAEKAVQIAYPRLLNLGIKVLRPTDYYAEMAKSDTHMQKVRKRLLGIQEMKERQEAFRRIREEKKFAVKVQKEVLAAKNTEKKNLAEAVKKHKKGMKQQLEDMLNNVKRHGLDQDDDAPTGAFGDRLGGRGGAGRGGAGRGGSMRNAGELKRKLKSDKFGYGGKKKGMKRNNKESFNDLFGAPRGGFGGRGRGGGRGGRGGRGRR | not soluble |
| MDLHADSLDGTRSGPGLPTSDTKASFEAHVREKFNRMVEAVDRTVEKRIDKLTKELAQKTAELLEVRAAFVQLTQKKQEVQRRERALNRQVDVAVEMIAVLRQRLTESEEELLRKEEEVVTFNHFLEAAAEKEVQGKARLQDFIENLLQRVELAEKQLEYYQSQQASGFVRDLSGHVLTDISSNRKPKCLSRGHPHSVCNHPDLKSHFHPKGRNHLKKAKDDRASMQPAKAIHEQAESSRDLCRPPKKGELLGFGRKGNIRPKMAKKKPTAIVNII | not soluble |
| MGHHHHHHGGHMSLITVMNRIGVKPEFAAQFEESFRNRAGLVDGMPGFIRNEVLKPTKPGDPYIVLTYWQDEPSFRAWTESDEFKQGHARSGSLPHDAFTGRPVLEVHDVLLSSDNEGGS | soluble |
| MKNLAIFDLDNTLINTDSDHAWPQYLIKKGLVDAAETEAQNEKFYRDYQNGCLDIDAFLKLHLAPLARYSKEELAEFHREFMAEYIIPHISPMQRMLVQSHQMAGDETLVISSTNEFIITPVCRLFGIANMIGTQLETGPDGRYTGNYIGTPSLKEGKITRLNQWLAERGETLESYGKTYFYSDSKNDLPLLRLVSEPVAVNPDAELEKEAKEKGWPVLNFK | not soluble |
| MAIRIAINGFGRIGRSVLRALYESGRRAEISVVAINELASAEGMAHLLKYDSSHGRFAWDVRQECDSLYVGDDIIRLIHQSEIEQLPWSELGIDVVLDCSGVYGSREDGEAHVASGAKKVLFAHPGGHDLDATVVYGVNHQDLRAEHRIVSNASCTTNCIIPIIQLLDIAYGIESGTVTTIHSSMNDQPVIDAYHQDLRRTRAASQSIIPVDTKLAAGITRIFPKFCDRFEAISVRVPTINVTAIDLSVSVTHPVGVAEVNQLLQKAARGAFRGIVDYTELPLVSMDFNHDPHSAIVDGTQTRVSGQHLIKTLVWCDNEWGFANRMLDTTLAMAKSGF | not soluble |
| MGSDKIHHHHHHMEPFSPLNWFRRSSSQASCRTALSSQPSLEAAVNEVAAALAGGSSADLALVFASTHYASDLQRLLPLLQRRLKATHWLGCAGGGVIGTTAKGNASELEKEPALSITMLQLPGAILKPFYLETQSLPDLDGPAQHWQEWVGADPFNARSMLLLVDPSSRSINDLISGLDYAYPTTTKLGGIAGPHNAPHGSLFFDDRVVMGAVGCSFGGDWNLEVVVAQGCKPIGPVFAIEQVQKNILLELSHENQRDSPMACLQRVLDDLSEEEREMVRHSLFLGIERRDLVLAGTGAPQPQGAFLVRNLIGVDPKNGAVAVAEQIRAGQNVQFQLREAEASRQESELLLGAARERNTSPPLFGLLMACLGRGHGLYGVPNGDVHIARKLMAELPIAGVFCNGEIGPAGGVGATHIHGYTACWGLLRHDPSSSEPAKSV | not soluble |
| MGSDKIHHHHHHMRESVVKLNEYTLRIFSLNTIVVGSGAAGLNAVDRVFSFGQKDVALLTDNLKWGTSRNTGSDKQTYYKLTLAGNVPDSVYELAETLFNGGSMDGDIALVEAALSARAFFRLVELGVPFPHSRYGEYVGYKTDHDPKQRATSAGPLTSYYMCEKLLEEIRRKGIKIFEGYQVIGILTDRNEEKTIGLIALDLNNIDDPEKRYVLFNVKNIIYATGGPAGMFYFHSVYPPVHFGATGIAFEAGVMGKNLTEWQFGIASKKFRWNLSGTYQQVIPRYVSTDENGNDEREFLEEYFPDPSTMLNAIFLKGYQWPFDVRKIKNYGSSLIDILVFYETVIKGRRVWLDFTRNPSWGSKNGELDFSLLGKEAYEYLKNSGALFGRPIDRLEKMNRPAIEVYLQHGIDLRKEYLEIGVCAQHNNGGLHGNIWWESNLKHFFPVGEVNGSHGVYRPGGSALNSGQVGGVRAAQYIVENYSGDPLCEEEILEEAKDQILKKIELGESFVKKITGKSNVSSILKEISERSMRSMGIVRSLEEAGKGKNEALRDFNNLIEKVELSSIRQLPFAFRLYDVLLTQYVYLSAVENYIESGGKSRGSYIVHDPTGELPVPNLPEMFRYSLAGESFNKKIQRVRCKENRCEFFWDPVKEIPREDTWFETIWNSFMRREVFR | not soluble |
| MSVTYDDSVGVEVSSDSFWEVGNYKRTVKRIDDGHRLCSDLMNCLHERARIEKAYAQQLTEWARRWRQLVEKGPQYGTVEKAWMAFMSEAERVSELHLEVKASLMNDDFEKIKNWQKEAFHKQMMGGFKETKEAEDGFRKAQKPWAKKLKEVEAAKKAHHAACKEEKLAISREANSKADPSLNPEQLKKLQDKIEKCKQDVLKTKEKYEKSLKELDQGTPQYMENMEQVFEQCQQFEEKRLRFFREVLLEVQKHLDLSNVAGYKAIYHDLEQSIRAADAVEDLRWFRANHGPGMAMNWPQFEEWSADLNRTLSRREKKKATDGVTLTGINQTGDQSLPSKPSSTLNVPSNPAQSAQSQSSYNPFEDEDDTGSTVSEKDDTKAKNVSSYEKTQSYPTDWSDDESNNPFSSTDANGDSNPFDDDATSGTEVRVRALYDYEGQEHDELSFKAGDELTKMEDEDEQGWCKGRLDNGQVGLYPANYVEAIQ | soluble |
| MSGAFNNDGRGISPLIATSWERCNKLMKRETWNVPHQAQGVTFASIYRRKKAMLTLGQAALEDAWEYMAPRECALFILDETACILSRNGDPQTLQQLSALGFNDGTYCAEGIIGTCALSLAAISGQAVKTMADQHFKQVLWNWAFCATPLFDSKGRLTGTIALACPVEQTTAADLPLTLAIAREVGNLLLTDSLLAETNRHLNQLNALLESMDDGVISWDEQGNLQFINAQAARVLRLDATASQGRAITELLTLPAVLQQAIKQAHPLKHVEATFESQHQFIDAVITLKPIIETQGTSFILLLHPVEQMRQLMTSQLGKVSHTFAHMPQDDPQTRRLIHFGRQAARSSFPVLLCGEEGVGKALLSQAIHNESERAAGPYIAVNCELYGDAALAEEFIGGDRTDNENGRLSRLELAHGGTLFLEKIEYLAVELQSALLQVIKQGVITRLDARRLIPIDVKVIATTTADLAMLVEQNRFSRQLYYALHAFEITIPPLRMRRGSIPALVNNKLRSLEKRFSTRLKIDDDALARLVSCAWPGNDFELYSVIENLALSSDNGRIRVSDLPEHLFTEQATDDVSATRLSTSLSFAEVEKEAIINAAQVTGGRIQEMSALLGIGRTTLWRKMKQHGIDAGQFKRRV | soluble |
| MSLAQLDKNDPARGVLAAIAANASKIAEYDPRVRADEYDSVHQMRVATRELRSHLQTFEGILGGEDYLNLEKELKVLANILGRARDAEVVEERLSNLINTEVGDSIEEETKKELLEDLGAEYRREHERVVRALDNDRYTDLLQALENLLVDPPLITEVEEPEATEAPESAETTESTDVSEATEEADAEAESVEEATEQEESADAPESADLDALDEEYSPGSQAPVEEPKEPKKVDAALVLLEHLDKAHVKLVKLEKKARSQWDDLSIPMLEREENFHNLRKAAKKLRYSAEAVGKATTVETKKLYKACSGLQSVLGDYQDAITSRNELLRRAQVARRQGRDTFAYGILYQHEQTLSREYLTGYSDAFKSVEKAYAKLAEDTAKRSKKNKRKEGHHHHHH | not soluble |
| MLAKVLKKRGAVLRGDFVLSSGRRSSVYIDMRRLLGDESSYSVALDLLLEVGGQDLARSSAVIGVATGGLPWAAMLALRLSKPLGYVRPERKGHGTLSQVEGDPPKGRVVVVDDVATTGTSIAKSIEVLRSNGYTVGTALVLVDRGEGAGELLARMGVRLVSVATLKTILEKLGWGGE | soluble |
